One molecule from paper PMC4434891, “The Smc5-Smc6 heterodimer associates with DNA through several independent binding domains” (Scientific Reports, 2015) can be followed below.

This test has as its target T1, Smc6 FL (full-length Smc6) (UniProt Q12749 1-1114).
T1 construct: Smc6, full length, residues 1-1114; Vector YEpFAT4; also called FL Smc6; source: yeast, purified as previously described (StrepTrap column)
T1 sequence (looked up): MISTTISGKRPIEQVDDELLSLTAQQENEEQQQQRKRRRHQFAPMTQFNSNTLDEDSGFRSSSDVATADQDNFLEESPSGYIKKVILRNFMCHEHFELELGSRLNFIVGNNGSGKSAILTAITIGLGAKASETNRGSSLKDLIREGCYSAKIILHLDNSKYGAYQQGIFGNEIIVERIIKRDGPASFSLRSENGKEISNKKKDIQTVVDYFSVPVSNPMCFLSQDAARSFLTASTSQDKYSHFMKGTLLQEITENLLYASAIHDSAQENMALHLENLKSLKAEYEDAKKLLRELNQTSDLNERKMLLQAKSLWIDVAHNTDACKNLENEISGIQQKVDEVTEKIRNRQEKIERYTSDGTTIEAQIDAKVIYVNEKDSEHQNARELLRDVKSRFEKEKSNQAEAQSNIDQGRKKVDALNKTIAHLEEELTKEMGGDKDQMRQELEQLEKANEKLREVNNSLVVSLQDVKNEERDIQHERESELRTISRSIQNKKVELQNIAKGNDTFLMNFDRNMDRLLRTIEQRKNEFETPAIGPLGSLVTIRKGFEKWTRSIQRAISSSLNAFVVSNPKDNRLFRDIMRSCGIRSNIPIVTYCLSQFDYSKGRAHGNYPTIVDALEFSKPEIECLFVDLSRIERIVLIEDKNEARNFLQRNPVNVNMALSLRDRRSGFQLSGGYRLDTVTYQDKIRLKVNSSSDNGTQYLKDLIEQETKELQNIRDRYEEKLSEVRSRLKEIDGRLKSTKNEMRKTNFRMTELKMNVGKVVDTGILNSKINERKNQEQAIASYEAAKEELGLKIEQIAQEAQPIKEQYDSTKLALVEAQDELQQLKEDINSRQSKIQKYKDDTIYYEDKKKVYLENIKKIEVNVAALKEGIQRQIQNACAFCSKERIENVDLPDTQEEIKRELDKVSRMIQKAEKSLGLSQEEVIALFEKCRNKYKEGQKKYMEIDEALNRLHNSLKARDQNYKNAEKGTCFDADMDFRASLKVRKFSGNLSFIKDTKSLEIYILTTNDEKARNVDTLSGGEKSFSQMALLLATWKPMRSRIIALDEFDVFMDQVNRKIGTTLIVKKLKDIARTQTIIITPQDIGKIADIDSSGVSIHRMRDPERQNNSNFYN
Kind of test: SEC; StrepTrap eluates of Smc6 (5 mL) and Smc5 (150 uL) mixed, overnight at 4 °C, concentrated; complexes separated from monomeric subunits on Superose 6 10/300 in buffer G (25 mM potassium phosphate pH 8.0, 750 mM NaCl, 15% glycerol, 0.2% Tween 20, 2 mM 2-ME, 1 mM EDTA). Conditions: both partners purified. (SEC sorts molecules by how far they enter the pores of the column.)

B1: Smc5 FL (full-length Smc5) (natural protein, UniProt Q08204 1-1093, looked up)
chain: MTSLIDLGRYVERTHHGEDTEPRSKRVKIAKPDLSSFQPGSIIKIRLQDFVTYTLTEFNLSPSLNMIIGPNGSGKSTFVCAVCLGLAGKPEYIGRSKKVEDFIKNGQDVSKIEITLKNSPNVTDIEYIDARDETIKITRIITRSKRRSDYLINDYQVSESVVKTLVAQLNIQLDNLCQFLSQERVEEFARLKSVKLLVETIRSIDASLLDVLDELRELQGNEQSLQKDLDFKKAKIVHLRQESDKLRKSVESLRDFQNKKGEIELHSQLLPYVKVKDHKEKLNIYKEEYERAKANLRAILKDKKPFANTKKTLENQVEELTEKCSLKTDEFLKAKEKINEIFEKLNTIRDEVIKKKNQNEYYRGRTKKLQATIISTKEDFLRSQEILAQTHLPEKSVFEDIDIKRKEIINKEGEIRDLISEIDAKANAINHEMRSIQRQAESKTKSLTTTDKIGILNQDQDLKEVRDAVLMVREHPEMKDKILEPPIMTVSAINAQFAAYLAQCVDYNTSKALTVVDSDSYKLFANPILDKFKVNLRELSSADTTPPVPAETVRDLGFEGYLSDFITGDKRVMKMLCQTSKIHTIPVSRRELTPAQIKKLITPRPNGKILFKRIIHGNRLVDIKQSAYGSKQVFPTDVSIKQTNFYQGSIMSNEQKIRIENEIINLKNEYNDRKSTLDALSNQKSGYRHELSELASKNDDINREAHQLNEIRKKYTMRKSTIETLREKLDQLKREARKDVSQKIKDIDDQIQQLLLKQRHLLSKMASSMKSLKNCQKELISTQILQFEAQNMDVSMNDVIGFFNEREADLKSQYEDKKKFVKEMRDTPEFQSWMREIRSYDQDTKEKLNKVAEKYEEEGNFNLSFVQDVLDKLESEIAMVNHDESAVTILDQVTAELRELEHTVPQQSKDLETIKAKLKEDHAVLEPKLDDIVSKISARFARLFNNVGSAGAVRLEKPKDYAEWKIEIMVKFRDNAPLKKLDSHTQSGGERAVSTVLYMIALQEFTSAPFRVVDEINQGMDSRNERIVHKAMVENACAENTSQYFLITPKLLTGLHYHEKMRIHCVMAGSWIPNPSEDPKMIHFGETSNYSFD
notes: Smc5, full length, residues 1-1093; Vector YEpFAT4; also called FL Smc5; source: yeast, purified as previously described (StrepTrap column)
In the case of B1, the binding result is recorded as “binds”.
